Laboratory results as given in PMC3303844, “C-Terminal Extension of the Yeast Mitochondrial DNA Polymerase Determines the Balance between Synthesis and Degradation”.

Tests used:
Conditions in all cases: protein: recombinant; tags: N-terminal 6xHis; label: 32P at 5' end of D25 primer; 25 bp duplex, 5' overhang 20 nt on D45 (recessed primer 3' end)
Mip1Δ279 = biological target: T1, Mip1Δ279 (Saccharomyces cerevisiae, UniProt P15801 30-975, del976-1254); assay: EMSA; faint shifted band, complex possibly retained in well (aggregation); not quantified; EMSA: 1 nM substrate, 0.2-12.5 nM polymerase, 20 mM Tris-HCl pH 8.0, 40 mM KCl, 10% glycerol, 0.1 mg/ml BSA, 2 mM DTT, 2 min at 0°C; native 8% Tris-glycine gel
T1 sequence: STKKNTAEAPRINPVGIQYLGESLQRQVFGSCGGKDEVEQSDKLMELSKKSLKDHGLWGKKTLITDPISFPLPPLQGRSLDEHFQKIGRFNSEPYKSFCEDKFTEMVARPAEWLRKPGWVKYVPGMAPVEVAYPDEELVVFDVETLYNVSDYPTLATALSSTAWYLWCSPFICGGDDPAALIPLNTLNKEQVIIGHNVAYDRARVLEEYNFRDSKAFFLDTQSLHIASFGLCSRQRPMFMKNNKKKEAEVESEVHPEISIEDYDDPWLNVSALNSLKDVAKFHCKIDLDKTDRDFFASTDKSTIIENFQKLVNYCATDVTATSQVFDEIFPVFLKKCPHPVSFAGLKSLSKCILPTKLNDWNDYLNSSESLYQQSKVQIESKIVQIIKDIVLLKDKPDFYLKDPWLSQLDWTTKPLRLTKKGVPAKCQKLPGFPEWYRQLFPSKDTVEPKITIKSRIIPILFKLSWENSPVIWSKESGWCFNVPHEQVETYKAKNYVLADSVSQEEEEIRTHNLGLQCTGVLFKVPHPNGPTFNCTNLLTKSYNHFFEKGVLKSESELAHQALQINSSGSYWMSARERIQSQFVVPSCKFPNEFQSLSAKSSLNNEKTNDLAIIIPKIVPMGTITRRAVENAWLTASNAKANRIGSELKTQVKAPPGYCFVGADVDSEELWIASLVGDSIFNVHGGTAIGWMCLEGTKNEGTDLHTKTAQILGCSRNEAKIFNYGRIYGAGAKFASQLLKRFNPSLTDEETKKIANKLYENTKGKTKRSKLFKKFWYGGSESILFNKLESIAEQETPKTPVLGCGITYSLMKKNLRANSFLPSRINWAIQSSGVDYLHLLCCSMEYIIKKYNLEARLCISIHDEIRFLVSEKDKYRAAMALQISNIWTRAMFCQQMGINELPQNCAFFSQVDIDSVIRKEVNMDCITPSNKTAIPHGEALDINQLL

[1] = biological target: T2, FL-Mip1 (mitochondrial DNA polymerase gamma) (Saccharomyces cerevisiae, UniProt P15801 30-1254); assay: EMSA; no Mg2+ or dNTP in binding mix; EMSA: 1 nM substrate, 0.2-12.5 nM polymerase, 20 mM Tris-HCl pH 8.0, 40 mM KCl, 10% glycerol, 0.1 mg/ml BSA, 2 mM DTT, 2 min at 0°C; native 8% Tris-glycine gel
T2 sequence: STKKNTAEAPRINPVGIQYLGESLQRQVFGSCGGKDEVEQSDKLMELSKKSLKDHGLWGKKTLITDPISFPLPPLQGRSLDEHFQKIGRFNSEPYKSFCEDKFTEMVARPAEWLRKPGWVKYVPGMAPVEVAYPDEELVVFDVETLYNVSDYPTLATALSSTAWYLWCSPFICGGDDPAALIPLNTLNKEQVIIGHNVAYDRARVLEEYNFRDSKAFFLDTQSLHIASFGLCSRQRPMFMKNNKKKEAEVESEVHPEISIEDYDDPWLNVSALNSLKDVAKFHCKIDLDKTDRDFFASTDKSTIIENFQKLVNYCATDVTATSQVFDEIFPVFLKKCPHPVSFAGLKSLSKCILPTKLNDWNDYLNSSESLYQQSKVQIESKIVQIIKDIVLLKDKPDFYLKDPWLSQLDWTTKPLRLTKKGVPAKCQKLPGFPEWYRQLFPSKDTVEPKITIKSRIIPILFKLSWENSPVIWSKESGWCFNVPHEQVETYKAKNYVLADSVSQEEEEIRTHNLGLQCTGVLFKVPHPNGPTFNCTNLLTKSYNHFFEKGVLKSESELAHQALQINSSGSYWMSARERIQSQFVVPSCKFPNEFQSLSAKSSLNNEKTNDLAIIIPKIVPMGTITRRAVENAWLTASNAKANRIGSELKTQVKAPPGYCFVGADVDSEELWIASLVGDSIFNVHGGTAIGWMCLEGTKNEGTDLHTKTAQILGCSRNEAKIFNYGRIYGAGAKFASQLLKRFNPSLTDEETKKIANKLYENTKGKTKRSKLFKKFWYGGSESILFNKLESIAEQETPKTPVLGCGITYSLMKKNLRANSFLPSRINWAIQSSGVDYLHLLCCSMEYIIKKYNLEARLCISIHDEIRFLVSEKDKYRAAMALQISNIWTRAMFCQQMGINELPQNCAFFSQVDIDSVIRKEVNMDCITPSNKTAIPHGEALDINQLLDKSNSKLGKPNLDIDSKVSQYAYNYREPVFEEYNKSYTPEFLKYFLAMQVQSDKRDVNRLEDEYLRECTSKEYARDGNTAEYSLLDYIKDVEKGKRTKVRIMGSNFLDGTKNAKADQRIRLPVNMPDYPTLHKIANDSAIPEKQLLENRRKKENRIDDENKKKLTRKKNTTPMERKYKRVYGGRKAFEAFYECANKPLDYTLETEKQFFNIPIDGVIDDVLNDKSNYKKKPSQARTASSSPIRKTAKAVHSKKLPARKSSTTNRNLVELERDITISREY

Mip1Δ175 = biological target: T3, Mip1Δ175 (Saccharomyces cerevisiae, UniProt P15801 30-1079, del1080-1254); assay: as above
T3 sequence: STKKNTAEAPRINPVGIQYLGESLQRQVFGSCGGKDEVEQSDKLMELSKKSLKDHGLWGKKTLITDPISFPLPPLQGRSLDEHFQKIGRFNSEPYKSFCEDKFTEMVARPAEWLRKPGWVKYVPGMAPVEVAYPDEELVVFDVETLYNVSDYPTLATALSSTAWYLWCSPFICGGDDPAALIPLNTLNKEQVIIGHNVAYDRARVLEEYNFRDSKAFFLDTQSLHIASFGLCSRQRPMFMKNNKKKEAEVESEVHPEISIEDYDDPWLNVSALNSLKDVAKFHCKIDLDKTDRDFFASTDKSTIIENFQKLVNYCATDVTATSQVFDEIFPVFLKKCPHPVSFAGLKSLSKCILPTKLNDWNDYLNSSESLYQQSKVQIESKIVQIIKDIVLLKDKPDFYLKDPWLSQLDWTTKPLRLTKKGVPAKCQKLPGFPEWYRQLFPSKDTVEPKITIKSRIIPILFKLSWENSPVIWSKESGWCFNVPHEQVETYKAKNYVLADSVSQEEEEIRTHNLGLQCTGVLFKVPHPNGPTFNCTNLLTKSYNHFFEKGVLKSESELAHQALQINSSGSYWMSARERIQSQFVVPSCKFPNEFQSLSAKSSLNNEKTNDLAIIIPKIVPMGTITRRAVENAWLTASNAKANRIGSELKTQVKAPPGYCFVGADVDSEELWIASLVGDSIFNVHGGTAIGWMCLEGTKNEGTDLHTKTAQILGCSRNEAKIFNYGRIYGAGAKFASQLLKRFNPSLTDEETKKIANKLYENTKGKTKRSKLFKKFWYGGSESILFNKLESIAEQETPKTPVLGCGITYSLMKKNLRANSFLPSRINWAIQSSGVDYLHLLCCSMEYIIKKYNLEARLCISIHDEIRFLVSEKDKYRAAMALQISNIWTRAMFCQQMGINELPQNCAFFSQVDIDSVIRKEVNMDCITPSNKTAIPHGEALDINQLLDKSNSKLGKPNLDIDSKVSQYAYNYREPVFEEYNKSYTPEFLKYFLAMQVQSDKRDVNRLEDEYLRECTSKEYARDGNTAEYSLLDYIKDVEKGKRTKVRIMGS

Mip1Δ216 = biological target: T4, Mip1Δ216 (Saccharomyces cerevisiae, UniProt P15801 30-1038, del1039-1254); assay: as above
T4 sequence: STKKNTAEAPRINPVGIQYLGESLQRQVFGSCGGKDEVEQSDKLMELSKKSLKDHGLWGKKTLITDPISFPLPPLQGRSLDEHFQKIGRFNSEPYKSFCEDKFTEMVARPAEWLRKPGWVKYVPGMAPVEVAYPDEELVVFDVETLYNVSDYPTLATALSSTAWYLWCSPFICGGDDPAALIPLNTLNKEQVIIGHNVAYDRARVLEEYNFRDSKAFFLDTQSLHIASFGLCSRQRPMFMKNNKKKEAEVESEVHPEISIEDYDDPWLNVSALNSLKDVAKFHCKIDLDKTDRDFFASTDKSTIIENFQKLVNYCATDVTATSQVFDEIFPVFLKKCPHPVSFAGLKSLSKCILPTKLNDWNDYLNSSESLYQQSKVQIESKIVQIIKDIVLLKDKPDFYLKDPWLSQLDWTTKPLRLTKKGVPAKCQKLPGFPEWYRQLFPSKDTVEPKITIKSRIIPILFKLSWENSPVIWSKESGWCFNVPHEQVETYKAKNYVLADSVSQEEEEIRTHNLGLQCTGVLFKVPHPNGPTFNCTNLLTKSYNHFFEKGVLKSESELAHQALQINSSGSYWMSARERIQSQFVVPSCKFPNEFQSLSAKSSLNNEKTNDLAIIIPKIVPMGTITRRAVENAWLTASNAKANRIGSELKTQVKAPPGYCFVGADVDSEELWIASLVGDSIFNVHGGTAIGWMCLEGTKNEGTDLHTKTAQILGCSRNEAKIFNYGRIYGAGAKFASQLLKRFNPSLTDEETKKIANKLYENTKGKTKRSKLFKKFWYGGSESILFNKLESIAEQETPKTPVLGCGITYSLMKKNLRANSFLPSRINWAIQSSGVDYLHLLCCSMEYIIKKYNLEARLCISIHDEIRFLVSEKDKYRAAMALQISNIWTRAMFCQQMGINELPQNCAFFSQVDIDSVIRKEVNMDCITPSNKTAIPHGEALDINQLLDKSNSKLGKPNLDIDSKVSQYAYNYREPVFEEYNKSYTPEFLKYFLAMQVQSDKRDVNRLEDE

B1: 45/25 primer-template (D45/D25) (dsDNA)
DNA 1: GGACGGCATTGGATCGAGGTTGAGTTGGTTGGACGGCTGCGAGGC
DNA 2: GCCTCGCAGCCGTCCAACCAACTCA
- binding result (Mip1Δ279): binds
- Kd [1]: 4.3 ± 0.68 nM
- Kd (Mip1Δ175): 2.2 ± 0.75 nM
- Kd (Mip1Δ216): 0.95 ± 0.18 nM
